Article PMC4914093 (Nucleic Acids Research, 2016)

Target: T1, Rev1 C-terminal domain (876–985) of the Rad5–Rev1 fusion protein (S. cerevisiae, UniProt P12689 876-985)
T1 sequence (looked up): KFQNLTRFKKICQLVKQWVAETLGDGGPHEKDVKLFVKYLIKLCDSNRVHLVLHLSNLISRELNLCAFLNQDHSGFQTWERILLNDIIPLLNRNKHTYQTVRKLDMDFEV
Experiment: crystal structure

binding result: binds
B1: Rad5 peptide (5–20) of the Rad5–Rev1 fusion protein (peptide, UniProt P32849 5-20, looked up)
chain: EQEERKRFFNDDLDTS
